From paper PMC11267267, “Metabolic Recoding of NSUN2‐Mediated m^5C Modification Promotes the Progression of Colorectal Cancer via the NSUN2/YBX1/m^5C‐ENO1 Positive Feedback Loop” (Advanced Science, 2024)

System: YBX1 cold shock domain (MST)
Assay: MST
Conditions: not given in the material (MST and pull-down methods text missing)

unmethylated ENO1 RNA oligo (MST)
Kd: 10.1 µM
